Assay results as given in patent US20030036699A1, “Methods and systems which use annexin for bioprofiling body lumen” (IMETRx, Inc., priority 2001, published 2003).
Values joined by “and” are separate entries in the source; they are usually repeats but may differ in a detail not shown here. Equal values may be shown once.

B1: annexin V-^99mTc (protein, UniProt P08758 2-320, looked up)
Annexin A5: AQVLRGTVTDFPGFDERADAETLRKAMKGLGTDEESILTLLTSRSNAQRQEISAAFKTLFGRDLLDDLKSELTGKFEKLIVALMKPSRLYDAYELKHALKGAGTNEKVLTEIIASRTPEELRAIKQVYEEEYGSSLEDDVVGDTSGYYQRMLVVLLQANRDPDAGIDEAQVEQDAQALFQAGELKWGTDEEKFITIFGTRSVSHLRKVFDKYMTISGFQIEETIDRETSGNLEQLLLAVVKSIRSIPAYLAETLYYAMKGAGTDDHTLIRVMVSRSEIDLFNIRKEFRKNFATSLYSMIKGDTSGDYKKALLLLCGEDD
modifications: technetium-99m label
notes: Annexin V, a human protein (36 kD) of 319 amino acids, radiolabeled with technetium-99m as tracer

Tested on: injured iliac vessel (arterial lesions)
Assay: Tracer uptake by autoradiography of harvested aorta/iliac in balloon-injured, cholesterol-fed rabbits
Format: in vivo, rabbit
Settings: for Figure of Merit (FOM): FOM=3(AUR)(PUR)(PBR); for Peak Uptake Ratio (PUR): peak lesion uptake vs uninjured zone, autoradiograph after single IV tracer dose; for Average Uptake Ratio (AUR): ratio of uptake in injured vs uninjured iliac vessel, autoradiograph about 2.5 h after single IV tracer dose
Description: Twenty-one adult male rabbits (weighing 3-4 kg at the time of tracer administration) were each were fed a high cholesterol, high fat diet for one week. Following one week of feeding, the rabbits were heparinized, anesthetized with ketamine HCI (25 mg/kg, IM) and medetomidine (0.5 mg/kg, IM), and underwent a left carotid arteriotomy. A 3-4F Fogarty catheter was advanced through the arteriotomy under fluoroscopic guidance into the right iliac artery. The Fogarty balloon was inflated with 0.4-0.75 ml of contrast media (to assist with localization by fluoroscopy) and withdrawn to the level of diaphragm. The balloon was deflated, the catheter returned to the distal iliac under fluoroscopic guidance, and the process repeated. There were six repetitions of the procedure. The neck incision was closed, and the animals received Baytril (5 mg IM) for 3 days following surgery to minimize infection. The animals were allowed to recover for four additional weeks while the high fat/high cholesterol diet was continued. The rabbits were divided into seven groups of […] each. On the day of study, a blood sample was drawn to measure lipids (cholesterol), and two groups of three animals received a single tracer dose intravenously via a marginal ear vein. The first group of three rabbits received annexin V-^99mTc.
Two hours after the radiopharmaceutical was administered, the animals were injected with Evans blue to identify the areas of injury an re-endothelialized aorta and iliac vessel. Thirty minutes later, the animals were anesthetized with sodium pentothal (35 mg/kg, IV) and, a thoracotomy and a midline laporotomy incision were performed. The left ventricle was identified, a trocar placed in the chamber, and a cannula placed in the abdominal aorta. The rabbit was partially exsanguinated, followed by infusion of 100 mL lactated Ringer's solution, and subsequently perfused with 0.4% paraformaldehyde (PFA) for about 5 min at about 100 mmHg pressure.
Following euthanasia, the aorta was harvested, photographed (SONY Mavica) and autoradiographed (Molecular Dynamics). An aliquot of blood and an aliquot of the injected dose were included on the plate to permit quantification. The autoradiographs were compared to the Evans Blue stained specimen to determine where the tracer had localized with reference to the injury. A ratio between uptake in the injured and uninjured iliac vessel was determined (average uptake ratio) using analysis option of ‘Image Quest^1.’ Additional ratios were created using the average counts in regions of interest placed over the area with peak uptake on the autoradiograph with each agent, and a ratio of peak uptake to the activity in an aliquot blood were determined.
To simplify the process of integrating the information, a Figure of Merit was calculated, using the formula: […]

Molecule | Figure of Merit (FOM) | activity in injured iliac vessel relative to uninjured site (animals 1 and 3) | Peak Uptake Ratio (PUR) | Average Uptake Ratio (AUR) | localization of tracer on the autoradiograph relative to lesion sites (autoradiograph compared with Evans Blue stained specimen) | Peak to Blood Ratio (PBR) (peak lesion uptake vs activity in an aliquot of blood)
albumin-^125I [reference compound] | 14 | 3 fold | 5.1 and 5.2 | 3.0 | – | –
B1 | 1701 | – | 15 | 8.4 | striking correlation between lesion sites and localization of annexin | 4.5
